Like-named read-outs stand apart in the source and are kept apart here. *1 amine or outer side, *2 acyl side, *3 side chain or, on linkers, in order; H or OH if unused. Where a SMILES comes first, the peptide text is derived from it. Bridges are numbered along the chain shown (N, C = ends). Where no end group is shown, it is not given here. [ ]: non-standard residue; d: D form. Adda = CO[C@@H](Cc1ccccc1)[C@@H](C)/C=C(C)/C=C/[C@H](N[*:1])[C@H](C)C(=O)[*:2]; dAsp(3S-Me) = C[C@H](C(=O)[*:3])[C@@H](N[*:1])C(=O)[*:2]; d(γGlu) = O=C(O)[C@@H](CCC(=O)[*:2])N[*:1]; pS = N[C@@H](COP(=O)(O)O)C(=O)O; NMeDha = C=C(NC)C(=O)O
Experiments:
v-Abl kinase = biological target: T1, v-Abl kinase (Abelson murine leukemia virus, UniProt P00521); assay: v-Abl kinase phosphorylation of optical probe, fluorescence readout after chymotrypsin; type: biochemical
T1 construct: purchased Calbiochem
T1 sequence (P00521 whole entry): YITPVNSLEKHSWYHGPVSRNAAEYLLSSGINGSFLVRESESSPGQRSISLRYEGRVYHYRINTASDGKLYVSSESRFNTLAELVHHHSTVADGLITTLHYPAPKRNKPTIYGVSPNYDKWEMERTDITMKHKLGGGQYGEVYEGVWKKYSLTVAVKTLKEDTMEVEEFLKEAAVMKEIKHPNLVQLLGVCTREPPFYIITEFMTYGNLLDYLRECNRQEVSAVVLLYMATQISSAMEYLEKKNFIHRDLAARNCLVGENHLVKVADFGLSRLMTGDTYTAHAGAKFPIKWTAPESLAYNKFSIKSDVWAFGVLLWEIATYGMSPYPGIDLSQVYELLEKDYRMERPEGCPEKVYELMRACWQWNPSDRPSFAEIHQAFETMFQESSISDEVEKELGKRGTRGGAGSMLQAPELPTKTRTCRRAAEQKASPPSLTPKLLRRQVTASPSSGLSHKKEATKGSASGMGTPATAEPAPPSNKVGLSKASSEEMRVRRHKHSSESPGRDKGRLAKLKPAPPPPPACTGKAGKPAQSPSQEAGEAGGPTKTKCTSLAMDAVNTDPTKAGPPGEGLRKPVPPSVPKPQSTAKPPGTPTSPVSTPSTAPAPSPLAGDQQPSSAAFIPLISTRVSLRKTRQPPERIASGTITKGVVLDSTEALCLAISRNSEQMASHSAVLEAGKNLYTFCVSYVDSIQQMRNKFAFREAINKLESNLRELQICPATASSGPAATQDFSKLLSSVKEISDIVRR

PP2A = PP2A (Homo sapiens, UniProt P67775); assay: PP2A inhibitor assay with optical probe; type: biochemical
PP2A, sequence (P67775 whole entry): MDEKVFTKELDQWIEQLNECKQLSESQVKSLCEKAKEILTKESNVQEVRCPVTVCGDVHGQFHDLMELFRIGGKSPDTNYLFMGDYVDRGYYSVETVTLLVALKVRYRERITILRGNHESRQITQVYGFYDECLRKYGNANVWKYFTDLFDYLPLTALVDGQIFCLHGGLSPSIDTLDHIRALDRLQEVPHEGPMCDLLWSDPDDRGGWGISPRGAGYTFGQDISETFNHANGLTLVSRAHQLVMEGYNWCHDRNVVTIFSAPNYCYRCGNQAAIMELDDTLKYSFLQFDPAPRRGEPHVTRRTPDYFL
Method: (§1) To determine if the optical probe phosphatase assay could detect inhibitors of PP2A, the phosphatase assay was performed in the presence or absence of 100 nM microcystin-LR. PP2A assays were set up as described above, and were incubated at 30 C for 2 hours. Reactions were diluted to 100 μL with 50 mM HEPES, pH 7.5 followed by the addition of chymotrypsin to 0.2 μM. Fluorescence values were measured on the Cytofluor after a 1.5 hour incubation at room temperature. As described above, treatment of the phosphorylated optical probe (SEQ. ID. NO: 23) with PP2A followed by chymotrypsin gave a final 460/530 ratio of 8.8±0.1. […] Thus, the optical probe based phosphatase assay can detect inhibitors of PP2A activity.

chymotrypsin [1] = biological target: T2, chymotrypsin (Bos taurus, UniProt P00766); assay: Control: effect of inhibitor on chymotrypsin cleavage of non-phosphorylated probe; type: biochemical
Method: (§2) To determine if the optical probe protein phosphatase assay could detect inhibitors of PP1, the phosphatase assay was performed in the presence or absence of 1 μM microcystin-LR, a potent inhibitor of PP1. Phosphatase assays were set up as described above except the phosphatase was allowed to pre-incubate with microcystin-LR for 10 minutes before the addition of phosphorylated or non-phosphorylated optical probes (SEQ. ID. NO: 23). PP1 reactions were incubated at 30 C for 1 hour and then diluted to 100 μL in 50 mM HEPES, pH 7.5 followed by the addition of chymotrypsin to 0.2 μM. Fluorescence values were measured on the Cytofluor after a 2 hour incubation at room temperature as described above. After treatment of the phosphorylated optical probe with PP1 followed by chymotrypsin, the 460/530 ratio was 13.2±0.2. […] Thus, the present invention could be used to detect inhibitors of PP1 activity.
as §1

PP1 = PP1 (Homo sapiens, UniProt P62136); assay: PP1 inhibitor assay with optical probe; type: biochemical
PP1, sequence (P62136 whole entry): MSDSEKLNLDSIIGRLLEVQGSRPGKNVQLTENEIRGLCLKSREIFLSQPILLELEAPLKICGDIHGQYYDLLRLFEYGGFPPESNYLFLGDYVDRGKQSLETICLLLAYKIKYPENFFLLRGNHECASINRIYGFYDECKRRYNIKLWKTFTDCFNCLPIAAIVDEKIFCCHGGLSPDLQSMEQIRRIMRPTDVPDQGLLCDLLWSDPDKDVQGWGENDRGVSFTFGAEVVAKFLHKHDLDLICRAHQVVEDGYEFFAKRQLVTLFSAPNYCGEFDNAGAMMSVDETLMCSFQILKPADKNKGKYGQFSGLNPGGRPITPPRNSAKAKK
Method: as §2

chymotrypsin [2] = biological target: T2, chymotrypsin; assay: Chymotrypsin cleavage of phosphorylated and non-phosphorylated tyrosine kinase optical probes; type: biochemical, bovine; parameters: purchased Calbiochem 230832
chymotrypsin [3] = biological target: T2, chymotrypsin; assay: Chymotrypsin cleavage of optical probe with or without casein kinase 1 phosphorylation; type: biochemical
From the text: To measure casein kinase 1 activity, an optical probe was designed as described above. In this case, the kinase substrate was designed so that the point of phosphorylation was located at the P′2 position (underlined in SEQ. I.D. NO: 17 below) with respect to the scissile bond cleaved by chymotrypsin, which enables the creation of a recognition motif suitable for casein kinase 1. A substrate peptide ([…], SEQ. ID. NO: 17) was synthesized and labeled with fluorescein isothiocyanate at the N-terminus and 7-hydroxycoumarin-3-carboxamide at the C-terminus as described in Example 1.
Samples of phosphorylated and non-phosphorylated optical probes were prepared and tested as described in Example 1. In this case, complete phosphorylation of the optical probe (1 μM) was obtained after room temperature incubation for 15 to 30 minutes in the presence of 500 Units of casein kinase 1 (New England BioLabs) in 50 mM Tris-Cl, pH 7.5, 10 mM MgCl2, 5 mM DTT, and 200 μM ATP.
To determine the relative proteolytic sensitivity of phosphorylated and non-phosphorylated optical probes, samples of both were incubated with various concentrations of chymotrypsin and the cleavage monitored by measuring the 460/530 emission ratio as described in Example 1.

[4] = biological target: protein phosphatase I (PPI) (Homo sapiens, UniProt P62136); assay: Protein phosphatase I dephosphorylation of optical probe; type: biochemical
protein phosphatase I (PPI), sequence (P62136 whole entry): as above
Method: To determine if the optical probes could be used to detect serine/threonine phosphatase activities, samples of the casein kinase 1 specific phosphorylated optical probes were prepared and treated with various serine/threonine protein phosphatases. To do this, the casein kinase 1 optical probe ([…], SEQ. ID. NO: 17) (100 μM) was phosphorylated to completion with CKI (2000 units) in a 100 μL reaction containing 200 μM ATP for 5 hours at 30° C. A mock kinase reaction was performed which contained no ATP for preparation of control, non-phosphorylated optical probes. The resistance of the phosphorylated optical probe to chymotrypsin cleavage (data not shown) confirmed complete phosphorylation of the CKI-treated optical probe. Phosphorylated and non-phosphorylated samples of the optical probe (2 μM) were incubated in a 50 μL volume with or without 1 unit of the serine/threonine phosphatase protein phosphatase I (PPI) for 2 hours at 30° C. in a buffer consisting of 50 mM Tris-Cl, pH 7.0, 0.1 mM EDTA, 5 mM DTT, 0.01% Brij-35, and 1 mM MnCl2. The reactions were diluted to 100 μL with 50 mM HEPES, pH 7.5, incubated with chymotrypsin (0.2 μM) for 1 hour at room temperature, and fluorescence values were measured on the Cytofluor as described above. Before chymotrypsin addition all reactions had similar 460/530 ratios of about 1.2.

[5] = biological target: protein phosphatase 2A (PP2A) (Homo sapiens, UniProt P67775); assay: Protein phosphatase 2A dephosphorylation of optical probe; type: biochemical; details: 1.5 hour chymotrypsin incubation
protein phosphatase 2A (PP2A), sequence (P67775 whole entry): as the sequence (P67775 whole entry) above
Method: The optical probes were also evaluated to determine if they could be used to measure protein phosphatase 2A (PP2A) activity. Phosphorylated and non-phosphorylated samples of the CKI optical probes ([…]) were prepared and incubated with 0.03 units of PP2A as described above, except MnCl2 was not included. After dilution and addition of chymotrypsin as described above, fluorescence values were measured using a 96 well plate reader (Cytofluor). After a 1.5 hour chymotrypsin incubation, the 460/530 emission ratio of the phosphorylated optical probe was 1.8±0.2 (Table 18).

chymotrypsin [6] = biological target: T2, chymotrypsin; assay: Chymotrypsin cleavage of optical probe with or without ERK phosphorylation; type: biochemical; details: for 460/530 Emission Ratio, Negative Control (No Active Kinase) / 460/530 Emission Ratio, Positive Control (Active Kinase): 4 nM chymotrypsin
Method: This substrate (100 μM) was phosphorylated by incubation at 30 C for 3 hours in a 100 μL reaction containing 500 ng ERK (Biomol) and 500 μM ATP in a buffer consisting of 50 mM Tris-Cl, pH 7.5, 10 mM MgCl2, 1 mM EGTA, 2 mM DTT, and 0.01% Brij-35. To test the proteolytic sensitivity of phosphorylated and non-phosphorylated samples, 2 μL of the mock (no kinase) or kinase reaction was diluted to 100 μL in a buffer containing 50 mM HEPES, pH 7.5, 10 mM CaCl2, and 0.01% Brij-35, and incubated with chymotrypsin at a concentration of 4 nM. Cleavage reactions were monitored on the Cytofluor for 1 hr. […] The maximum fold difference in 460/530 ratio was about 15.2 and occurred after 30 minutes of cleavage.

[7] = no inhibitor, chymotrypsin 0.2 μM, 1.5 hour
[8] = no inhibitor, chymotrypsin 0.2 μM, 2 hour

## Nc1ncnc2c1ncn2[C@@H]1O[C@H](COP(=O)(O)OP(=O)(O)OP(=O)(O)O)[C@@H](O)[C@H]1O [ATP]
v-Abl kinase; v-Abl, abl optical probe as substrate, read-out: apparent Km for ATP
  Km: 8 µM

## C=C1C(=O)N[C@H](C)C(=O)N[C@@H](CC(C)C)C(=O)N[C@@H](C(=O)O)[C@H](C)C(=O)N[C@@H](CCCNC(=N)N)C(=O)N[C@@H](/C=C/C(C)=C/[C@H](C)[C@H](Cc2ccccc2)OC)[C@H](C)C(=O)N[C@@H](C(=O)O)CCC(=O)N1C [microcystin-LR, reference compound] (R[Adda][d(γGlu)][NMeDha][dA]L[dAsp(3S-Me)]-OH; lactam N-7)
PP2A
  460/530 ratio After Chymotrypsin, Phosphorylated Optical probe + PP2A + microcystin-LR: 1.9 ± 0.1
  460/530 ratio Before Chymotrypsin, Phosphorylated Optical probe + PP2A + microcystin-LR: 1.4 ± 0.1
  inhibition of PP2A activity: completely inhibited
Chymotrypsin [1]
  460/530 ratio After Chymotrypsin, Non-phosphorylated Optical probe + PP1 + microcystin-LR: 13.3 ± 0.2
  460/530 ratio After Chymotrypsin, Non-phosphorylated Optical probe + PP2A + microcystin-LR: 11.1 ± 0.2
  460/530 ratio Before Chymotrypsin, Non-phosphorylated Optical probe + PP2A + microcystin-LR: 1.4 ± 0.1
  inhibition of chymotrypsin cleavage: did not inhibit
PP1
  460/530 ratio After Chymotrypsin, Phosphorylated Optical probe + PP1 + microcystin-LR: 2.8 ± 0.1
  inhibition of PP1 activity: almost completely inhibited

## AEAIYAAPL [abl substrate]
v-Abl kinase
  turnover of the optical probe by v-Abl: 9.5 s⁻¹
v-Abl kinase; read-out: apparent Km for the substrate
  Km: 40 µM
Chymotrypsin [2]
  difference in emission ratios of phosphorylated (non-cleaved) and non-phosphorylated (cleaved) substrate: 30 fold

## GDQDYLSLDK (GDQDYL[pS]LDK; also: FITC and hydroxycoumarin carboxamide labels, places not given here) [casein kinase 1 optical probe, peptide labeled with fluorescein isothiocyanate and 7-hydroxycoumarin-3-carboxamide; casein kinase 1 substrate]
PP2A; no inhibitor
  460/530 ratio Before Chymotrypsin, Non-phosphorylate Optical probe + PP2A: 1.4 ± 0.0
  460/530 ratio Before Chymotrypsin, Phosphorylated Optical probe + PP2A: 1.3 ± 0.0
PP2A; [7]
  460/530 ratio After Chymotrypsin, Non-phosphorylate Optical probe + PP2A: 11.1 ± 0.1
  460/530 ratio After Chymotrypsin, Phosphorylated Optical probe + PP2A: 8.8 ± 0.1
Chymotrypsin [3]; chymotrypsin 0.04 μM
  460/530 Emission Ratio, Negative Control (No Active Kinase): 3.0
  460/530 Emission Ratio, Positive Control (Active Kinase Only): 1.2
  Fold difference in ratios: 2.5
Chymotrypsin [3]; chymotrypsin 0.1 μM
  460/530 Emission Ratio, Negative Control (No Active Kinase): 6.6
  460/530 Emission Ratio, Positive Control (Active Kinase Only): 1.4
  Fold difference in ratios: 4.7
Chymotrypsin [3]; chymotrypsin 0.2 μM
  460/530 Emission Ratio, Negative Control (No Active Kinase): 10.9
  460/530 Emission Ratio, Positive Control (Active Kinase Only): 1.7
  Fold difference in ratios: 6.4
Chymotrypsin [3]; chymotrypsin 0.3 μM
  460/530 Emission Ratio, Negative Control (No Active Kinase): 12.3
  460/530 Emission Ratio, Positive Control (Active Kinase Only): 1.9
  Fold difference in ratios: 6.5
Chymotrypsin [3]; chymotrypsin 0.4 μM
  460/530 Emission Ratio, Negative Control (No Active Kinase): 14.3
  460/530 Emission Ratio, Positive Control (Active Kinase Only): 2.3
  Fold difference in ratios: 6.2
Chymotrypsin [3]; chymotrypsin 1.0 μM
  460/530 Emission Ratio, Negative Control (No Active Kinase): 15.4
  460/530 Emission Ratio, Positive Control (Active Kinase Only): 3.8
  Fold difference in ratios: 4.1
Chymotrypsin [3]; chymotrypsin 2.0 μM
  460/530 Emission Ratio, Negative Control (No Active Kinase): 15.6
  460/530 Emission Ratio, Positive Control (Active Kinase Only): 6.0
  Fold difference in ratios: 2.6
PP1; [8]
  460/530 ratio After Chymotrypsin, Non-phosphorylate Optical probe + PP1: 13.2 ± 0.1
  460/530 ratio After Chymotrypsin, Phosphorylated Optical probe + PP1: 13.2 ± 0.2
[4]; 1 unit PPI, 2 hours at 30° C., chymotrypsin 0.2 μM, 1 hour
  460/530 Emission Ratio After Chymotrypsin, Phosphorylated Control + Phosphatase (PP1): 10.0
[4]; all reactions
  460/530 ratio before chymotrypsin addition: about 1.2
[4]; chymotrypsin 0.2 μM, 1 hour
  460/530 Emission ratio After Chymotrypsin, Non-phosphorylated Control: 9.8
  460/530 Emission ratio After Chymotrypsin, Phosphorylated Control: 2.0
[5]; 0.03 units PP2A
  460/530 Emission ratio After Chymotrypsin, Phosphorylated Control + Phosphatase (PP2A): 8.8 ± 0.1
[5]
  460/530 Emission ratio After Chymotrypsin, Non-phosphorylated Control: 11.0 ± 0.1
  460/530 Emission ratio After Chymotrypsin, Phosphorylated Control: 1.8 ± 0.2

## VAPFSPGGRAK [optical probe designed as a substrate for extracellular signal-regulated kinase (ERK)]
Chymotrypsin [6]; time of cleavage 0 min
  460/530 Emission Ratio, Negative Control (No Active Kinase): 0.28
  460/530 Emission Ratio, Positive Control (Active Kinase): 0.33
  Fold difference in ratios: 0.85
Chymotrypsin [6]; time of cleavage 10 min
  460/530 Emission Ratio, Negative Control (No Active Kinase): 4.17
  460/530 Emission Ratio, Positive Control (Active Kinase): 0.44
  Fold difference in ratios: 9.45
Chymotrypsin [6]; time of cleavage 20 min
  460/530 Emission Ratio, Negative Control (No Active Kinase): 7.56
  460/530 Emission Ratio, Positive Control (Active Kinase): 0.56
  Fold difference in ratios: 13.55
Chymotrypsin [6]; time of cleavage 30 min
  460/530 Emission Ratio, Negative Control (No Active Kinase): 10.03
  460/530 Emission Ratio, Positive Control (Active Kinase): 0.66
  Fold difference in ratios: 15.16
Chymotrypsin [6]; time of cleavage 40 min
  460/530 Emission Ratio, Negative Control (No Active Kinase): 11.71
  460/530 Emission Ratio, Positive Control (Active Kinase): 0.78
  Fold difference in ratios: 14.99
Chymotrypsin [6]; time of cleavage 50 min
  460/530 Emission Ratio, Negative Control (No Active Kinase): 12.73
  460/530 Emission Ratio, Positive Control (Active Kinase): 0.89
  Fold difference in ratios: 14.34
Chymotrypsin [6]; time of cleavage 60 min
  460/530 Emission Ratio, Negative Control (No Active Kinase): 13.40
  460/530 Emission Ratio, Positive Control (Active Kinase): 1.00
  Fold difference in ratios: 13.36

Reference: patent US6410255B1, “Optical probes and assays” (priority 1999, dated 2002)
